# Source: patent US20080305188A9, “Composition and method for supporting cancer treatments” (priority 2003, published 2008)
# Where two headings read alike, the source gives them in different places. Marks after values point to notes of the source that are not given here.
# B1: G-CSF/5-Fu: granulocyte colony-stimulating factor, comparison treatment given with 5-Fu (protein, UniProt P09919 31-207, looked up)
# Granulocyte …: TPLGPASSLPQSFLLKCLEQVRKIQGDGAALQEKLVSECATYKLCHPEELVLLGHSLGIPWAPLSSCPSQALQLAGCLSQLHSGLFLYQGLLQALEGISPELGPTLDTLQLDVADFATTIWQQMEELGMAPALQPTQGAMPAFASAFQRRAGGVLVASHLQSFLEVSYRVLRHLAQP
# Experiments:
# [1] = tested on: BALB/c mice injected with 5-Fu; assay: Blood cell counts in mice given 5-Fu (reduction of bone marrow suppression); type: in vivo
# [2] = Body weight of mice given 5-Fu; type: in vivo
# [3] = Pharmacokinetics study of intravenous injection of matrine or oxymatrine with addition of geranium oil (HPLC peak areas); settings: with addition of geranium oil versus compound alone
# white blood cells = settings: taken orally; previously published animal experiments and clinical trials; cited from earlier work
# [4] = in vivo, iv
# [5] = Day 10, 5-Fu 135 mg/kg IP single dose only
# [6] = Day 14, 5-Fu 135 mg/kg IP single dose only
# [7] = Day 10, 135 μg/mouse G-CSF and 5-Fu
# [8] = Day 14, 135 μg/mouse G-CSF and 5-Fu
molecule,measurement,setting,value
"O=c1[nH]cc(F)c(=O)[nH]1 [5-Fu, 5-Fluorouracil, reference compound]",GR (granulocytes) count,[1]; [5],0.25 ± 0.050 10^3/μl
same,LY (lymphocytes) count,[1]; [5],3.66 ± 0.648 10^3/μl
same,MO (monocytes) count,[1]; [5],0.25 ± 0.046 10^3/μl
same,PLT (platelets) count,[1]; [5],2828 ± 632.4 10^3/μl
same,RBC (erythrocytes) count,[1]; [5],7.86 ± 0.171 10^6/μl
same,WBC (total leukocytes) count,[1]; [5],4.17±0.677 10^3/μl
same,GR (granulocytes) count,[1]; [6],1.65 ± 0.756 10^3/μl
same,LY (lymphocytes) count,[1]; [6],5.75 ± 0.880 10^3/μl
same,MO (monocytes) count,[1]; [6],0.59 ± 0.316 10^3/μl
same,PLT (platelets) count,[1]; [6],2219 ± 750.2 10^3/μl
same,RBC (erythrocytes) count,[1]; [6],8.09 ± 0.331 10^6/μl
same,WBC (total leukocytes) count,[1]; [6],7.98 ± 1.575 10^3/μl
same,weight of mice,"[2]; Day 0, 5-Fu only group, in g",22.0 ± 0.93
same,weight of mice,"[2]; Day 10, 5-Fu only group",22.3 ± 1.53 g
same,weight of mice,"[2]; Day 14, 5-Fu only group, in g",23.5 ± 0.78
same,weight of mice,"[2]; Day -2, 5-Fu only group, in g",20.7 ± 0.90
O=C1CCC[C@@H]2[C@H]3CCCN4CCC[C@@H](CN12)[C@@H]34 [matrine],absorption and metabolism of the compound (changes in HPLC peak areas over time),[3],increase the absorption and metabolism
O=C1CCC[C@@H]2[C@H]3CCC[N+]4([O-])CCC[C@@H](CN12)[C@@H]34 (stereo partly shown) [oxymatrine],effect on increasing white blood cells,white blood cells,does not show any effect on increasing white blood cells
same,absorption and metabolism of the compound (changes in HPLC peak areas over time),[4],increase the absorption and metabolism
B1,GR (granulocytes) count,[1]; [7],0.71 ± 0.268** 10^3/μl
same,LY (lymphocytes) count,[1]; [7],5.01 ± 1.372* 10^3/μl
same,MO (monocytes) count,[1]; [7],0.38 ± 0.141* 10^3/μl
same,PLT (platelets) count,[1]; [7],2303 ± 491.7 10^3/μl
same,RBC (erythrocytes) count,[1]; [7],7.82 ± 0.424 10^6/μl
same,WBC (total leukocytes) count,[1]; [7],5.46±2.338 10^3/μl
same,bone marrow suppression effect (WBC) relative to that of 5-Fu only,[1]; [7],51%
same,suppression effect with respect to granulocytes relative to 5-Fu only,[1]; [7],54%
same,suppression effect with respect to lymphocytes relative to 5-Fu only,[1]; [7],18%
same,suppression effect with respect to monocytes relative to 5-Fu only,[1]; [7],7%
same,WBC (total leukocytes) count,"[1]; Day 10, 135 μg/mouse G-CSF and 5-Fu, listed as C-GSF/5-Fu",5.46 ± 2.338 10^3/μl
same,GR (granulocytes) count,[1]; [8],1.64 ± 0.405 10^3/μl
same,LY (lymphocytes) count,[1]; [8],6.12 ± 1.164 10^3/μl
same,MO (monocytes) count,[1]; [8],0.58 ± 0.266 10^3/μl
same,PLT (platelets) count,[1]; [8],2105 ± 378.1 10^3/μl
same,RBC (erythrocytes) count,[1]; [8],8.02 ± 0.340 10^6/μl
same,WBC (total leukocytes) count,[1]; [8],8.34 ± 1.454 10^3/μl
same,total leukocyte count and lymphocyte count (only these) versus 5-Fu only,[1]; [8],continued to increase to a higher level than that of mice treated with 5-Fu only
same,weight of mice,"[2]; Day 0, G-CSF and 5-Fu, in g",22.0 ± 1.84
same,weight of mice,"[2]; Day 14, G-CSF and 5-Fu, in g",24.0 ± 1.64
same,weight of mice,"[2]; Day -2, G-CSF and 5-Fu, in g",20.5 ± 1.76
